According to patent US20180369334A1 (Stanford University, published 2018):
Values belong to the binder of their own block, whether it stands above or below them.

What was measured:
[1] = target: human endothelial cells (HUVECs); experiment: cell binding assay on human endothelial cells
[2] = target: T1, VEGFR1 (on PAE-VEGFR1 cells) (UniProt P17948 27-1338, limits assumed); experiment: binding to PAE-VEGFR1 cells; the column prints only 'VEGFR1 (nM)', the text calls it an affinity
T1 construct: whole, on cells
T1 sequence (P17948 27-1338 limits assumed): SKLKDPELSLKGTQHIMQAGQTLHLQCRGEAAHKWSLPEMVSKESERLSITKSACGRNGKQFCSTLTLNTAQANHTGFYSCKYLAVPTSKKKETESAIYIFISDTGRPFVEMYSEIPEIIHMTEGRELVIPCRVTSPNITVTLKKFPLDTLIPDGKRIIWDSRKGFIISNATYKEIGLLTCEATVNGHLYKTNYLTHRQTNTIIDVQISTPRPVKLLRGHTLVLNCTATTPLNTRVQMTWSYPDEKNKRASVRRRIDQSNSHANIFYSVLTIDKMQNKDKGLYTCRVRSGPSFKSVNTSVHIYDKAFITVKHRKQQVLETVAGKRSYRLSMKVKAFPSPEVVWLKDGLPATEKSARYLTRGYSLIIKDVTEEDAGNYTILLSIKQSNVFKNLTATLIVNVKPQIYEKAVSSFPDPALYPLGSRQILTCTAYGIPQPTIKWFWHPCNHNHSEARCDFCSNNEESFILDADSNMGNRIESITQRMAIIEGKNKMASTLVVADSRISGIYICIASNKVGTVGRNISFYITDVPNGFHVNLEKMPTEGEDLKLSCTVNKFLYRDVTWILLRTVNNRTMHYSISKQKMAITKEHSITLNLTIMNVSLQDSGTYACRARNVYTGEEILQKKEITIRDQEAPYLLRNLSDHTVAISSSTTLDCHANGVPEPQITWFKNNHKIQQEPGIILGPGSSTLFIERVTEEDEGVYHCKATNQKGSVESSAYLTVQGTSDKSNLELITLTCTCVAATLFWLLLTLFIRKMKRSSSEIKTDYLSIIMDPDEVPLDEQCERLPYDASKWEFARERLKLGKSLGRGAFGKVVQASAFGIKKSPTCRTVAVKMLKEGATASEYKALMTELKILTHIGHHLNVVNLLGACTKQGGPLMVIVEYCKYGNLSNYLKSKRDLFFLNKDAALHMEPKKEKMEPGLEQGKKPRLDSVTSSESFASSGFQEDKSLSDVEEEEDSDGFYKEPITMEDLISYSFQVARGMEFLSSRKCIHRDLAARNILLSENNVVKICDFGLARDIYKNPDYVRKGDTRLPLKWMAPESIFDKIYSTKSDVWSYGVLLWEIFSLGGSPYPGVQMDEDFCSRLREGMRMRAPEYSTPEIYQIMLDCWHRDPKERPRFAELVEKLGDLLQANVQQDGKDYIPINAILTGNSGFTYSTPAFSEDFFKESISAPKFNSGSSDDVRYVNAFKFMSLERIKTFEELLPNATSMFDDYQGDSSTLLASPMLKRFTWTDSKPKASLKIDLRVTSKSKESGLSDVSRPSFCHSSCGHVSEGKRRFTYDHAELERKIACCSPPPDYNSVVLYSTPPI

[3] = target: T2, VEGFR2 (on PAE-VEGFR2 cells) (UniProt P35968 20-1356, limits assumed); experiment: binding to PAE-VEGFR2 cells; the column prints only 'VEGFR2 (nM)'
T2 construct: whole, on cells
T2 sequence (P35968 20-1356 limits assumed): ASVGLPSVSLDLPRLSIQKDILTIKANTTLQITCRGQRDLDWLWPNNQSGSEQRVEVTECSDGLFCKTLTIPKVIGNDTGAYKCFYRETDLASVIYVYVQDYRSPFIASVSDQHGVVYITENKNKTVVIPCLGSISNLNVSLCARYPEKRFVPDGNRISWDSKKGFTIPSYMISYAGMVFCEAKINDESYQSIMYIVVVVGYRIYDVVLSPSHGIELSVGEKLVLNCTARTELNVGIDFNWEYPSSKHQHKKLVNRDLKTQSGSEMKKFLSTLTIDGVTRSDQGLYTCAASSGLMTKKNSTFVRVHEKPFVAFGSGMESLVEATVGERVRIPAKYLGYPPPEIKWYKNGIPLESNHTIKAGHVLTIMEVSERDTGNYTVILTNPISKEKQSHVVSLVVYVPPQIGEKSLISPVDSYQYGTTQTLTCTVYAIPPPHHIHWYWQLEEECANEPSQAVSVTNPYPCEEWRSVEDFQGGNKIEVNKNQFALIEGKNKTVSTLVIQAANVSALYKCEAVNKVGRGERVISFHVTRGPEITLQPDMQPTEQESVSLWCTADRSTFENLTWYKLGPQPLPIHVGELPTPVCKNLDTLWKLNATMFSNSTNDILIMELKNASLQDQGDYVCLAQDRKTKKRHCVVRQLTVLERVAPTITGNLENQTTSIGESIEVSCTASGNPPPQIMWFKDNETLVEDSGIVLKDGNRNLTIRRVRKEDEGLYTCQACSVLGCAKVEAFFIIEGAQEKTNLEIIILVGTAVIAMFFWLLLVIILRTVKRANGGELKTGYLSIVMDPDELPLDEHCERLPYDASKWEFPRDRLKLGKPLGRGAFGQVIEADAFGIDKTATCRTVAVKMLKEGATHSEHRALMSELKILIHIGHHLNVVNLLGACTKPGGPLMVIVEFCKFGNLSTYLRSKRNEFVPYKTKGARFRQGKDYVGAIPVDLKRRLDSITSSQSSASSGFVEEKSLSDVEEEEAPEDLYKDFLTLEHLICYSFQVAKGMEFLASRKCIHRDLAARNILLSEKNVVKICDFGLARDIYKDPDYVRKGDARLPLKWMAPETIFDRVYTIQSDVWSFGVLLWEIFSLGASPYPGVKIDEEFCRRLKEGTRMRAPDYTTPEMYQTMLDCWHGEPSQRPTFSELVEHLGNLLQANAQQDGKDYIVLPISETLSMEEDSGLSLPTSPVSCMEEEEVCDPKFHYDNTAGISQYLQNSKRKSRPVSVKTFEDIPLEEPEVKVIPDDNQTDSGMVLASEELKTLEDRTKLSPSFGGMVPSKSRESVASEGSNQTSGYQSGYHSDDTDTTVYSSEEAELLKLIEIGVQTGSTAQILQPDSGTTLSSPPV

[4] = target: human endothelial cells (HUVECs); experiment: binding to HUVEC; the column prints only 'HUVEC (nM)'

Kd [1]: 0.32 nM
B1: scVEGF-mE7I (SEQ ID NO: 75), construct with the original linker (ligand)
chain: EVVKAMDVYQRSYCHPIETLVDILQEYPDEIGYIFKPSCVPLMRCGGCCNGAGLECVPTEESNITMQIMRIKPHRGQHIGEMSFLQHNKCECRPKKDGGGGSGGGGSGGGGSGGGGSEVVRFMDVYQRSYCHPIETLVDIFQEYPNEIEYAFKPSCVPLMRCGGCCNNEGLECVPTEESNITMQIMRPSVRRGDSPASHIGEMSFLQHNKCECRPKKD

Kd [1]: 0.16 nM
fold improvement of KD against the construct with the original linker [1]: 2 fold
B2: scVEGF-mE7I construct containing the L3A linker (ligand)
chain: B1 chain

Kd [2]: 0.55 nM
Kd [3]: 0.5 nM
Kd [4]: 0.4 nM
B3: scVEGFMUT-E (mE, SEQ ID NO.: 55) (ligand)
chain: EVVKAMDVYQRSYCHPIETLVDILQEYPDEIGYIFKPSCVPLMRCGGCCNGAGLECVPTEESNITMQIMRIKPHRGQHIGEMSFLQHNKCECRPKKDGSTSGSGKSSEGKGEVVRFMDVYQRSYCHPIETLVDIFQEYPNEIEYAFKPSCVPLMRCGGCCNNEGLECVPTEESNITMQIMRAKPHQGQHIGEMSFLQHNKCECRPKKD
notes: Chain 1: F36L, E44G, D63G, Q87R; also called scVEGFmE
